In patent publication US20250388695A1 (PROMAB BIOTECHNOLOGIES, published 2025):

Columns and labels:
[1] = target: T1, Human EPCAM (Epithelial Cell Adhesion Molecule) on EPCAM-positive Lovo cells (human, UniProt P16422 24-314); assay: cell-based or functional assay
T1 sequence (looked up): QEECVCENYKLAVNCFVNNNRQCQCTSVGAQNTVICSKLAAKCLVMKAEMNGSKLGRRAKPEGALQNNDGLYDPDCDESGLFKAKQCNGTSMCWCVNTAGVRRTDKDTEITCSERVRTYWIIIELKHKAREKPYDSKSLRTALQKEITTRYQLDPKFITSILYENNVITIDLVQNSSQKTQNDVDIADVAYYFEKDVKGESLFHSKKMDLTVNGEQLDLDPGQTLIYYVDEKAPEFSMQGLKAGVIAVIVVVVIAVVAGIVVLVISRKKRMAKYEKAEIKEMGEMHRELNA

[2] = target: T2, Human CD3 epsilon chain on CD3-positive T cells (human, UniProt P07766 23-207); assay: FACS on T cells
T2 construct: whole, on cells; also called CD3 antigen

[3] = target: T1, Human EPCAM (Epithelial Cell Adhesion …); assay: FACS on EPCAM-positive cells

T2 sequence (P07766 23-207): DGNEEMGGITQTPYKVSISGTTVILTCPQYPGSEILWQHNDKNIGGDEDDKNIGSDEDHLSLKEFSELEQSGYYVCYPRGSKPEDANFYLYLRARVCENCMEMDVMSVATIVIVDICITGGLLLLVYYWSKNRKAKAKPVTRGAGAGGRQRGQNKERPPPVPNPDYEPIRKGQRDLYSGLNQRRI

B1: Humanized EPCAM ScFv-linker-CD3 ScFv-His tag (BITE) antibody PBM0065 (FIG. 1B structure) (bispecific antibody)
scFv: QVQLVQSGSELKKPGASVKVSCKASGYTFTNYGMNWVRQAPGQGLEWMGWINTYTGEPTYADDFKGRFVFSLDTSVSTAYLQISSLKAEDTAVYYCARWLRDFDYWGAGTTVTVSSGGGGSGGGGSGGGGSEIVLTQSPATLSLSPGERATLSCSASSSISYMHWYQQKPGQAPRLLIYDTSKLATGIPARFSGSGSGTDFTLTISSLEPEDFAVYYCHQRSSYPYTFGGGTKLEIKGGGGSGGGGSGGGGSEVQLLESGGGLVQPGGSLRLSCAASGFTFSTYAMNWVRQAPGKGLEWVSRIRSKYNNYATYYADSVKGRFTISRDDSKNTLYLQMNSLRAEDTAVYYCVRHGNFGNSYVSWFAYWGQGTLVTVSSGGGGSGGGGSGGGGSQAVVTQEPSLTVSPGGTVTLTCGSSTGAVTTSNYANWVQEKPGQAFRGLIGGTNKRAPGTPARFSGSLLGGKAALTLSGAQPEDEAEYYCALWYSNLWVFGGGTKLTVLHHHHHH
How did the “EC50 based on IFN-gamma secretion” value [1] turn out when B1 was run?
Its value is 5.28 ng/mL.

B2: Humanized EPCAM-CD3 bivalent CrossFAB knob-in-hole bispecific antibody PBM005 (FIG. 1A structure) (bispecific antibody)
light: EIVLTQSPATLSLSPGERATLSCSASSSISYMHWYQQKPGQAPRLLIYDTSKLATGIPARFSGSGSGTDFTLTISSLEPEDFAVYYCHQRSSYPYTFGGGTKLEIKRTVAAPSVFIFPPSDEQLKSGTASVVCLLNNFYPREAKVQWKVDNALQSGNSQESVTEQDSKDSTYSLSSTLTLSKADYEKHKVYACEVTHQGLSSPVTKSFNRGEC
chain: QAVVTQEPSLTVSPGGTVTLTCGSSTGAVTTSNYANWVQEKPGQAFRGLIGGTNKRAPGTPARFSGSLLGGKAALTLSGAQPEDEAEYYCALWYSNLWVFGGGTKLTVLSSASTKGPSVFPLAPSSKSTSGGTAALGCLVKDYFPEPVTVSWNSGALTSGVHTFPAVLQSSGLYSLSSVVTVPSSSLGTQTYICNVNHKPSNTKVDKKVEPKSC
heavy 1: not shown
heavy 2: QVQLVQSGSELKKPGASVKVSCKASGYTFTNYGMNWVRQAPGQGLEWMGWINTYTGEPTYADDFKGRFVFSLDTSVSTAYLQISSLKAEDTAVYYCARWLRDFDYWGAGTTVTVSSTKGPSVFPLAPSSKSTSGGTAALGCLVKDYFPEPVTVSWNSGALTSGVHTFPAVLQSSGLYSLSSVVTVPSSSLGTQTYICNVNHKPSNTKVDKKVEPKSCDKTHTCPPCPAPEAAGGPSVFLFPPKPKDTLMISRTPEVTCVVVDVSHEDPEVKFNWYVDGVEVHNAKTKPREEQYNSTYRVVSVLTVLHQDWLNGKEYKCKVSNKALGAPIEKTISKAKGQPREPQVCTLPPSRDELTKNQVSLSCAVKGFYPSDIAVEWESNGQPENNYKTTPPVLDSDGSFFLVSKLTVDKSRWQQGNVFSCSVMHEALHNHYTQKSLSLSPGK
notes: Four constructs co-transfected in 293S cells at 2:1:1:1; Supernatant or protein A purified antibody was used; also called EPCAM-CROSS-FAB-CD3 Knob in hole (KIH) CrossFAB format antibody; EpCAM-CD3 CrossMab knob-in-hole
Which results are given for B2?
binding result [2]: binds; binding result [3]: binds
